Key:
Type in all cases: cell-based, Saccharomyces cerevisiae
BEM1-1 = assay: DHFR-PCA on solid medium, bait BEM1-1 (Fig. 1B); details: bait BEM1-1, label = prey; for medrep (log2 median colony size normalized to plate background, PCA score): 2-8 replicates; for Ratio (SH3-deleted/WT medrep): only significant differences showed, PPIs completely lost have a ratio of 0.1 and the gained PPIs 2.5
Excerpt: (§1) Supplement 41467_2021_21873_MOESM8_ESM.xlsx, sheet "Fig1B" | column: medsize; medrep; Ratio; Score

BEM1-2 = assay: DHFR-PCA on solid medium, bait BEM1-2 (Fig. 1B); details: bait BEM1-2, label = prey; for medrep (log2 median colony size normalized to plate background, PCA score): 2-8 replicates; for Ratio (SH3-deleted/WT medrep): only significant differences showed, PPIs completely lost have a ratio of 0.1 and the gained PPIs 2.5
Excerpt: as §1

ABP1 = assay: DHFR-PCA on solid medium, bait ABP1 (Fig. 1B); details: bait ABP1, label = prey; for medrep (log2 median colony size normalized to plate background, PCA score): 2-4 replicates; for Ratio (SH3-deleted/WT medrep): only significant differences showed, PPIs completely lost have a ratio of 0.1 and the gained PPIs 2.5
Excerpt: as §1

| Molecule | medrep (log2 median colony size normalized to plate background, PCA score) (BEM1-1) | Ratio (SH3-deleted/WT medrep) (BEM1-1) | medrep (log2 median colony size normalized to plate background, PCA score) (BEM1-2) | Ratio (SH3-deleted/WT medrep) (BEM1-2) | medrep (log2 median colony size normalized to plate background, PCA score) (ABP1) | Ratio (SH3-deleted/WT medrep) (ABP1) |
| --- | --- | --- | --- | --- | --- | --- |
| YBR102C (protein, UniProt P38261 1-753, looked up) Exocyst complex component …: MVEFSLKKARNNWKHVKKSASSPAKQKTPPSPAKPKQKTKKNPYSDLKDPATSYTLPTINARERSRVATSMQRRLSIHNTNYAPPTLDYSMPLPDMPNMIVPNDNVDSSHNNSSFTTENESVSSKGPSNSLNLSTADLSLNDSSYNKVPARSAMRNTVNPSGSNDPFNNSTSLRKMLANPHFNAKDFVHDKLGNASAITIDKFTSNLTDLSIQVQEEVKLNINKSYNEIMTVNNDLNVAMLELKRVRANINDLNEVLDQCTKIAEKRLQLQDQIDQERQGNFNNVESHSNSPALLPPLKAGQNGNLMRRDRSSVLILEKFWDTELDQLFKNVEGAQKFINSTKGRHILMNSANWMELNTTTGKPLQMVQIFILNDLVLIADKSRDKQNDFIVSQCYPLKDVTVTQEEFSTKRLLFKFSNSNSSLYECRDADECSRLLDVIRKAKDDLCDIFHVEEENSKRIRESFRYLQSTQQTPGRENNRSPNKNKRRSMGGSITPGRNVTGAMDQYLLQNLTLSMHSRPRSRDMSSTAQRLKFLDEGVEEIDIELARLRFESAVETLLDIESQLEDLSERISDEELMLLNLISLKIEQRREAISSKLSQSILSSNEIVHLKSGTENMIKLGLPEQALDLFLQNRSNFIQDLILQIGSVDNPTNYLTQLAVIRFQTIKKTVEDFQDIFKELGAKISSILVDWCSDEVDNHFKLIDKQLLNDEMLSPGSIKSSRKQIDGLKAVGLDFVYKLDEFIKKNSDKIR | 1.504 | 0.1 | 1.504 | 0.1 |  |  |
| YDL065C (protein, UniProt Q07418 1-339, looked up) Peroxisomal membrane protein …: MNENEYDNFDDLDDLLDEDPTKLDEAEPDDVQAKGSVYNDSENKEKNAESKDSDGVQVANESEEDPELKEMMVDLQNEFANLMKNNGNENNVKTEDFNKLISALEEAAKVPHQQMEQGCSSLKSNSTDKGTVNGSNPGFKNIVSNTLDRLKENGNKVDTSLAEETKESQRSGQNNNIDDILSQLLDQMVASGGKESAENQFDLKDGEMDDAITKILDQMTSKEVLYEPMKEMRSEFGVWFQENGENEEHKEKIGTYKRQFNIVDEIVNIYELKDYDELKHKDRVTELLDELEQLGDSPIRSANSPLKHGNEEEELMKMLEIDGNDPNLGNLDKELTDGC | 3.086 | 2.5 |  |  | 3.518 | 1.321 |
| YDL225W (protein, UniProt Q07657 2-551, looked up) Seventh homolog of septin 1: STASTPPINLFRRKKEHKRGITYTMLLCGPAGTGKTAFANNLLETKIFPHKYQYGKSNASISSNPEVKVIAPTKVVSFNSKNGIPSYVSEFDPMRANLEPGITITSTSLELGGNKDQGKPEMNEDDTVFFNLIMTHGIGENLDDSLCSEEVMSYLEQQFDIVLAEETRIKRNPRFEDTRVHVALYFIEPTGHGLREVDVELMKSISKYTNVLPIITRADSFTKEELTQFRKNIMFDVERYNVPIYKFEVDPEDDDLESMEENQALASLQPFAIITSDTRDSEGRYVREYPWGIISIDDDKISDLKVLKNVLFGSHLQEFKDTTQNLLYENYRSEKLSSVANAEEIGPNSTKRQSNAPSLSNFASLISTGQFNSSQTLANNLRADTPRNQVSGNFKENEYEDNGEHDSAENEQEMSPVRQLGREIKQENENLIRSIKTESSPKFLNSPDLPERTKLRNISETVPYVLRHERILARQQKLEELEAQSAKELQKRIQELERKAHELKLREKLINQNKLNGSSSSINSLQQSTRSQIKKNDTYTDLASIASGRD | 2.78 |  | 2.78 | 0.1 | 2.276 |  |
| YER008C (protein, UniProt P33332 1-1336, looked up) Exocyst complex component SEC3: MRSSKSPFKRKSHSRETSHDENTSFFHKRTISGSSAHHSRNVSQGAVPSSAPPVSGGNYSHKRNVSRASNSSQTSNFLAEQYERDRKAIINCCFSRPDHKTGEPPNNYITHVRIIEDSKFPSSRPPPDSKLENKKKRLLILSAKPNNAKLIQIHKARENSDGSFQIGRTWQLTELVRVEKDLEISEGFILTMSKKYYWETNSAKERTVFIKSLITLYIQTFEGHVPELVNWDLSLFYLDERSYQRAVITNRPGSVSPIKSPTSNFTTNTTQSVGSVPFSAPTERTRRSETESVNPVSTPASVEYHAGMKSLNKAPYSSNSTLNEVNKRYELEQQQQQEEAELRRLEEQKRLQLQKENEMKRLEEERRIKQEERKRQMELEHQRQLEEEERKRQMELEAKKQMELKRQRQFEEEQRLKKERELLEIQRKQREQETAERLKKEEQEALAKKEEEEKSKRNKVDNESYTQEINGKVDNLLEDLNAVLAEETETTPTMQNGTYVPERSTARAHDQLKKPLNIAKVESLGGSDLNDSISLSDEIAGLNTSNLSGEDQDEKNDLSFEKGDEVRYSNNFEGEAPHVYHEVSIIQEEAPAVSQKLILPEENNESEALIESKEEIKTMENIDDEVLLEILTDINWSIEDDADSMIERIDLRLAETEYLFNQNLLSLQKIGPNIRPYEDKVNDECHRIIPTLSLFLMEMSNFSNDIENVESQDNGLQVESANKKLLWNTLDELLKTVSLDEISLNQLLECPIREKNLPWMENQLNLLLKAFQAIGSDGNEVEYNLREISGLKQRLQFYEKVTKIFLNRIVEEMQKKFSNIRGQDISHDQMIRILTTLLIFSPLILFCKEISQKSYQAIVENWNVSIQPVYMELWTKKISQLQGIDTNDEKMNELSLSQLLNEWDTFRKERKTNDINPVFKNSFSLLTECLQTMRQECIVYQNFVEVFFHISSKHNFEEYIKHFNDPDAPPILLDTVKVMQSDREAAVIETQLVSRIFQPIVTRLSSYFVELVKAEPTVAPALTFYLENEIKSLESSNHEFLLSAVTRMYTQIKQVWSDNVEEQVLHFERISNATTNGEILPGILDLPVGLKNSEDLFQFAKRSMDIKDTDEGYESIELMNSSFRKLSIAATRSITHKEVNSSINPNLSDTAALNNDYMETISLLVNSNWLTEMLSMLNFNKDGIFDTSLQNVKKVFDVEKESYASFLLRDTMPKLTAFVYGVSNIIENTNNVNMTNPSRWAAYSRQNLENILLAYTSHEIETLVKRLHTHMVNDFGYHQENAINNVLCDKLWSCIQGQTVSLYLKLYTVIDKHYRGTNIRFTKNDIISAFEEYKNA | 1.89 | 0.1 | 1.89 | 0.1 | 1.509 | 2.5 |
| YOL147C (protein, UniProt Q12462 2-236, looked up) Peroxisomal membrane protein …: VCDTLVYHPSVTRFVKFLDGSAGREKVLRLLQYLARFLAVQNSSLLARQLQAQFTTVRKFLRFLKPLNHLQAAAKFYDNKLASDNVVRVCNVLKNIFFAAYLSLDQVNLLRILKVIPVTVLTGKKIPRWSNWCWLFGLLSGLAMDLRKIQTSHAQIAAFVKAKSQSQGDEHEDHKKVLGKAYQDRYTALRRLFWDAADSFIVLNNLGYLSSNEEYVALSGVVTSILGMQDMWKAT | 4.705 | 2.5 |  |  |  |  |
| YLR314C (protein, UniProt P32457 2-520, looked up) Cell division control protein …: SLKEEQVSIKQDPEQEERQHDQFNDVQIKQESQDHDGVDSQYTNGTQNDDSERFEAAESDVKVEPGLGMGITSSQSEKGQVLPDQPEIKFIRRQINGYVGFANLPKQWHRRSIKNGFSFNLLCVGPDGIGKTTLMKTLFNNDDIEANLVKDYEEELANDQEEEEGQGEGHENQSQEQRHKVKIKSYESVIEENGVKLNLNVIDTEGFGDFLNNDQKSWDPIIKEIDSRFDQYLDAENKINRHSINDKRIHACLYFIEPTGHYLKPLDLKFMQSVYEKCNLIPVIAKSDILTDEEILSFKKTIMNQLIQSNIELFKPPIYSNDDAENSHLSERLFSSLPYAVIGSNDIVENYSGNQVRGRSYPWGVIEVDNDNHSDFNLLKNLLIKQFMEELKERTSKILYENYRSSKLAKLGIKQDNSVFKEFDPISKQQEEKTLHEAKLAKLEIEMKTVFQQKVSEKEKKLQKSETELFARHKEMKEKLTKQLKALEDKKKQLELSINSASPNVNHSPVPTKKKGFLR | 3.511 |  | 1.7566 | 0.5003 | 4.381 |  |
| YJR076C (protein, UniProt P32458 2-415, looked up) Cell division control protein …: SGIIDASSALRKRKHLKRGITFTVMIVGQSGSGRSTFINTLCGQQVVDTSTTILLPTDTSTEIDLQLREETVELEDDEGVKIQLNIIDTPGFGDSLDNSPSFEIISDYIRHQYDEILLEESRVRRNPRFKDGRVHCCLYLINPTGHGLKEIDVEFIRQLGSLVNIIPVISKSDSLTRDELKLNKKLIMEDIDRWNLPIYNFPFDEDEISDEDYETNMYLRTLLPFAIIGSNEVYEMGGDVGTIRGRKYPWGILDVEDSSISDFVILRNALLISHLHDLKNYTHEILYERYRTEALSGESVAAESIRPNLTKLNGSSSSSTTTRRNTNPFKQSNNINNDVLNPASDMHGQSTGENNETYMTREEQIRLEEERLKAFEERVQQELLLKRQELLQREKELREIEARLEKEAKIKQEE | 3.2032 |  | 1.843 | 0.5753 | 2.021 | 1.374 |

Source: PMC7954794, “Protein context shapes the specificity of SH3 domain-mediated interactions in vivo” (Nature Communications, 2021)
